From paper PMC8282340 (2021)
Read-outs that look alike come from different tables or passages of the source.

Legend:
Assay in all cases: FP
GST only = GST only (Schistosoma japonicum)
[1] = molecular target: human BCL-2 fused to the N-terminal half of T7 RNAP (human)
L4-3 [2] = molecular target: L4-3
L3-3 [3] = molecular target: L3-3
L3-1 [4] = molecular target: L3-1
hsMCL-1 variant L1-1 [5] = molecular target: T1, hsMCL-1 variant L1-1 (human, UniProt Q07820)
B3-1 [6] = molecular target: B3-1
B1-3 [7] = molecular target: B1-3
B2-1 [8] = molecular target: B2-1
B4-2 [9] = molecular target: B4-2
L4-3 [10] = molecular target: L4-3; remark: listed apart in the source
L3-3 [11] = molecular target: L3-3; remark: listed apart in the source
L3-1 [12] = molecular target: L3-1; remark: listed apart in the source
hsMCL-1 variant L1-1 [13] = molecular target: T1, hsMCL-1 variant L1-1; remark: listed apart in the source
B3-1 [14] = molecular target: B3-1; remark: listed apart in the source
B1-3 [15] = molecular target: B1-3; remark: listed apart in the source
B2-1 [16] = molecular target: B2-1; remark: listed apart in the source
B4-2 [17] = molecular target: B4-2; remark: listed apart in the source

Chain of human BCL-2 fused to the N-terminal half of T7 RNAP (human) (chain, as listed by the source): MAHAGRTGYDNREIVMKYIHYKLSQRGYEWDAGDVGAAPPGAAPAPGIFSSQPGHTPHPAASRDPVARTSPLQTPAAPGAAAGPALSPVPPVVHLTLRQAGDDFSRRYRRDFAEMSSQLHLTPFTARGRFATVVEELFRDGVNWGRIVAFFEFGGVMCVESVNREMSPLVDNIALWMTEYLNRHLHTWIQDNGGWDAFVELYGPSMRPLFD

B1: fluorescent NOXA peptide (peptide)
chain: AELEVECATQLRRFGDKLNFRQKLL
HELM: PEPTIDE1{[O=C1OC2(c3ccc(O)cc3Oc3cc(O)ccc32)c2ccc(C(=O)[*:2])cc21].[O=C(CCCCCN[*:1])[*:2]].A.E.L.E.V.E.C.A.T.Q.L.R.R.F.G.D.K.L.N.F.R.Q.K.L.L.[am]}$$$$V2.0
SMILES: CC(C)C[C@H](NC(=O)[C@H](CC(C)C)NC(=O)[C@H](CCCCN)NC(=O)[C@H](CCC(N)=O)NC(=O)[C@H](CCCNC(=N)N)NC(=O)[C@H](Cc1ccccc1)NC(=O)[C@H](CC(N)=O)NC(=O)[C@H](CC(C)C)NC(=O)[C@H](CCCCN)NC(=O)[C@H](CC(=O)O)NC(=O)CNC(=O)[C@H](Cc1ccccc1)NC(=O)[C@H](CCCNC(=N)N)NC(=O)[C@H](CCCNC(=N)N)NC(=O)[C@H](CC(C)C)NC(=O)[C@H](CCC(N)=O)NC(=O)[C@@H](NC(=O)[C@H](C)NC(=O)[C@H](CS)NC(=O)[C@H](CCC(=O)O)NC(=O)[C@@H](NC(=O)[C@H](CCC(=O)O)NC(=O)[C@H](CC(C)C)NC(=O)[C@H](CCC(=O)O)NC(=O)[C@H](C)NC(=O)CCCCCNC(=O)c1ccc2c(c1)C(=O)OC21c2ccc(O)cc2Oc2cc(O)ccc21)C(C)C)[C@@H](C)O)C(N)=O
Q: Which Kd (GST only) does the source give for B1 here?
A: Its Kd is > 1 µM.

Q: What about the Kd [1] of the same binder?
A: The Kd was 0.948 µM.

Q: And the Kd (L4-3 [2])?
A: Its Kd is > 1 µM.

Q: And the Kd (L3-3 [3])?
A: Its Kd is > 1 µM.

Q: And the Kd (L3-1 [4])?
A: Its Kd is 0.949 µM.

Q: What about the Kd (hsMCL-1 variant L1-1 [5]) of the same binder?
A: The Kd was 0.489 µM.

Q: And the Kd (B3-1 [6])?
A: Its Kd is 0.0534 µM.

Q: And the Kd (B1-3 [7])?
A: The Kd was 0.137 µM.

Q: What about the Kd (B2-1 [8]) of the same binder?
A: Its Kd is 0.34 µM.

Q: And the Kd (B4-2 [9])?
A: Its Kd is 0.186 µM.

B2: fluorescent BID peptide (peptide)
chain: QEDIIRNIARHLAQVGDSMDR
HELM: PEPTIDE1{[O=C1OC2(c3ccc(O)cc3Oc3cc(O)ccc32)c2ccc(C(=O)[*:2])cc21].[O=C(CCCCCN[*:1])[*:2]].Q.E.D.I.I.R.N.I.A.R.H.L.A.Q.V.G.D.S.M.D.R.[am]}$$$$V2.0
SMILES: CC[C@H](C)[C@H](NC(=O)[C@H](CC(N)=O)NC(=O)[C@H](CCCNC(=N)N)NC(=O)[C@@H](NC(=O)[C@@H](NC(=O)[C@H](CC(=O)O)NC(=O)[C@H](CCC(=O)O)NC(=O)[C@H](CCC(N)=O)NC(=O)CCCCCNC(=O)c1ccc2c(c1)C(=O)OC21c2ccc(O)cc2Oc2cc(O)ccc21)[C@@H](C)CC)[C@@H](C)CC)C(=O)N[C@@H](C)C(=O)N[C@@H](CCCNC(=N)N)C(=O)N[C@@H](Cc1c[nH]cn1)C(=O)N[C@@H](CC(C)C)C(=O)N[C@@H](C)C(=O)N[C@@H](CCC(N)=O)C(=O)N[C@H](C(=O)NCC(=O)N[C@@H](CC(=O)O)C(=O)N[C@@H](CO)C(=O)N[C@@H](CCSC)C(=O)N[C@@H](CC(=O)O)C(=O)N[C@@H](CCCNC(=N)N)C(N)=O)C(C)C
Q: For B2, which Kd (GST only) is on record?
A: The Kd was > 1 µM.

Q: And the Kd [1]?
A: Its Kd is 0.0876 µM.

Q: What about the Kd (L4-3 [10]) of the same binder?
A: Its Kd is 0.0187 µM.

Q: What about the Kd (L3-3 [11]) of the same binder?
A: The Kd was 0.00929 µM.

Q: And the Kd (L3-1 [12])?
A: Its Kd is 0.0253 µM.

Q: What about the Kd (hsMCL-1 variant L1-1 [13]) of the same binder?
A: The Kd was 0.00538 µM.

Q: What about the Kd (B3-1 [14]) of the same binder?
A: The Kd was 0.0334 µM.

Q: And the Kd (B1-3 [15])?
A: Its Kd is 0.00721 µM.

Q: What about the Kd (B2-1 [16]) of the same binder?
A: The Kd was 0.0433 µM.

Q: What about the Kd (B4-2 [17]) of the same binder?
A: The Kd was 0.00516 µM.
